# Results as given in the nanobody polyreactivity screen of Harvey et al. (2022).
# Experiment: yeast display, Sf9 membrane polyspecificity reagent, FACS + sequencing; frameworks hold sequencing errors
# Procedure, shortened: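 Nanobodies from a synthetic yeast display library (Saccharomyces cerevisiae BJ5465), induced 36–48 hours with galactose, were stained 1 hour at 4 °C with 10% biotinylated, detergent-solubilized Sf9 membrane reagent, enriched on streptavidin microbeads, then FACS-sorted. Anti-HA (expression) and streptavidin (reagent binding) fluorescence set low and high (top ~1%) gates. Polyreactivity labels come from the gate of origin. Genes were colony-PCR amplified, MiSeq 2 × 250 sequenced and filtered by CDR length.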
row,Sequence,polyreactivity (PSR sort gate)
1,QVQLVESGGGLVQAGGSLRLSCAASGFTFSNYAMGWYRQAPGKERELVAAISFRTGRTYYADSVKGRFTISRDNAKNTVYLQMNSLKPEDTAVYYCAAVVQSSEPVEYDYWGQGTQVTVSS,high polyreactivity
2,QVQLVESGGGLVQAGGSLRLSCAASGFTFSPNAMGWDRQAPGKERELVATISWNGGRTHYADSVKGRFTISRDNANKTVYLQMNSLKPEDTAVYYCNVVRATGRYYYWGQGTQVTVSS,high polyreactivity
3,QVQLVESGGGLVQAGGSLRLSCAASGFTFSQYAMGWYRQAPGKERELVAAISRSGGSTYYADSVKGRFTISRDNAKNTVYLQMNSLKPEDTAVYYCAARGPVGYGWRYRPWHDYWGQGTQVTVSS,high polyreactivity
4,QVQLVESGGGLVQAGGSLRLSCAASGFTFSRNAMGWYRQAPGKERELVAAISQSGGSTYYADSVKGRFTISRDNAKNTVYLQMNSRKPEDTAVYYCAATGWIIIKPTSSLKFNYWGQGTQVTVSS,high polyreactivity
5,QVQLVESGGGLVQAGGSLRLSCAASGFTFSRNAMGWYRQAPGKERELVAAITWSGGRTYYADSVKGRFTLSRDNAKNTVYLQMNSLKPEDTAVYYCAARKYHLRSAYDYWGHGTQVTVSS,low polyreactivity
6,QVQLVESGGGLVQAGGSLRLSCAASGFTFSRNTMGWYRQAPGKEREFVAGIRRSGSSTYYADSVKGRFTISRDNAKNTVYLQMNSLKPEDTAVYYCARVNGAKQGGEYDYWGQGTQVTVSS,high polyreactivity
7,QVQLVESGGGLVQAGGSLRLSCAASGFTFSRNTMGWYRQAPGKERELVARISASGGSTYYADSVKGRFTISRDNAKNTVYLQMNSLKPEDTAVYYCAAVYRRYGGSRYDYWGQGTQVTVSS,high polyreactivity
8,QVQLVESGGGLVQAGGSLRLSCAASGFTFSRNTMGWYSQAPGKERELVARISASGGSTYFADSVKGRITISRDNAKNTVYLQMTSLKQEATAVYYCAAVYRRYGGSRYDYWGQGTQVTVSS,high polyreactivity
9,QVQLVESGGGLVQAGGSLRLSCAASGFTFSRNTMGWYSQAPGKERELVARISASGGSTYYADSVKGRITISRDNAKNTVYLQMNSLKPEATAVYYCAAVYRRYGGSRYDYWGQGTQVTVSS,high polyreactivity
10,QVQLVESGGGLVQAGGSLRLSCAASGFTFSRNVMGWYRQAPGKERELVADITLSGASTYYADSVKGRFTISRDNAKNTVYLQMNSLKPEDTAVYYCAAEPYHWRWGWRHDYWGQGTQVTVSS,low polyreactivity
11,QVQLVESGGGLVQAGGSLRLSCAASGFTFSRYAMGGYRQAPGKERELVAAISIRGGNTYYADSVKGRFTISRDNAKNTVYLQMNSLKPEDTAVYYCAAAGRYLRYAYWGQGTQVTVSS,high polyreactivity
12,QVQLVESGGGLVQAGGSLRLSCAASGFTFSRYAMGWYRQAPGKERELVAAIDDGGSTYYADSVKGRFTISRDNAKNTVYLQMNSLKPEDTAVYYCNARGYGTLNVRRERMDYWGQGTQVTVSS,high polyreactivity
13,QVQLVESGGGLVQAGGSLRLSCAASGFTFSRYAMGWYRQAPGKERELVAAITRGGSTNYADSVKGRFTISRDNAKNTVYLQMNSLKPEDTAVYYCAVRIRYSTNAYYYWGQGTQVTVSS,high polyreactivity
14,QVQLVESGGGLVQAGGSLRLSCAASGFTFSSNAMGWSRPAPGKERELVAGITWSGGSTYYADSVKGRFTISRDNAKNTVYLQMNRLKPEDTAVYYCNFRYNASQYDYVYWGQGTQVTVSS,low polyreactivity
15,QVQLVESGGGLVQAGGSLRLSCAASGFTFSSNAMGWYRQAPGKERELVAAISRGGRTYYADSVKGRFTISRDNAKNTVYLQMNSLKPEDTAVYYCATDYVYRYDYWGQGTQVTVSS,high polyreactivity
16,QVQLVESGGGLVQAGGSLRLSCAASGFTFSSNAMGWYRQAPGKERELVAVIDSGDITNYADSVKGRFTISRDYAKNTVYLQMNSLKPEDTAVYYCAADSYSYFTDDHGYWGQGTQVTVSS,high polyreactivity
17,QVQLVESGGGLVQAGGSLRLSCAASGFTFSSYDMGWYRQAPGKDRDLVAAIDFIDGSTYYADSVKGRFTISRDNAKKTVYLQKNSLKPEDTAVYYCAADPVFKVELWPVRVRVDYWGQGTQVTVSS,low polyreactivity
18,QVQLVESGGGLVQAGGSLRLSCAASGFTFSSYVMGWYRQAPGKERELVAAISGSGGSTYYADSVKGRFTISRDNAKNTVYLQMNSLKPEDTAVYYCAAVRRVGPTSYYYWGQGTQVTVSS,high polyreactivity
19,QVQLVESGGGLVQAGGSLRLSCAASGFTFSTNAMGWYRQAPGKERELVAAISRGGSTNYADSVKGRFTISRDIAKNTVYLQMNSLKPEDTAVYYCNAYQSPDEEEYYWGQGTQVTVSS,low polyreactivity
20,QVQLVESGGGLVQAGGSLRLSCAASGFTFSTYAMGWYRPAPGKERELGAAISRSGGSTYYADSVKGRFTISRDNAKNTVYLQMNSLKPEDTAVYYCAADGLRRESSYYYWAQGTQVTVSS,high polyreactivity
21,QVQLVESGGGLVQAGGSLRLSCAASGFTFSVNAMGWYRQAPGKERELVAAITWSGGSTYYADSVKGRFTISRDNAKNTDYLQMNSLKPEDTAVFYCNARAQSSWGFWYDYWGQGTQVTVSS,high polyreactivity
22,QVQLVESGGGLVQAGGSLRLSCAASGFTFSVYTMGWYRQAPGNERELVAALRVSSGGTFYADSVKGRFTISRDNAKNTVYLQRNSLKPEDTAVYYCAVDRYTYDPIFSVVRRYDYWGQGTQVTVSS,high polyreactivity

row,Sequence,polyreactivity (PSR sort gate)
1,QVQLVESGGGLVQAGGSLRLSCAASGFTFSYNAMGWYRPAPGKERELVAVITKSGGSTYYADSVKGRFTISRDNAKNTVYLQMNSLKPEDTAVYYCNRQIKKLLTTHYYWGQGTQVTVSS,high polyreactivity
2,QVQLVESGGGLVQAGGSLRLSCAASGFTFSYNAMGWYRQAPGKERELVAVIKSSGGRTYYADSVKGRFTISRDNAKNTVYLQMNSLKPEDTAVYYCNAVYLQHRYRMYYWGQGTQVTVSS,high polyreactivity
3,QVQLVESGGGLVQAGGSLRLSCAASGFTFSYNAMGWYRQAPGKERELVAVINSSGGRTYYADSVKGRFTISRDNAKNTVYLQMNSLKPEDTAVYYCAARPVLAKYYYWGQGTQVTVSS,high polyreactivity
4,QVQLVESGGGLVQAGGSLRLSCAASGFTFSYNTMGWYRQAPGKERELVAAISRSGGRTYYADSVKGRFTISRDNAKNTVYLQMNSLKPEDTAVYYCARYSVTGYGANSGPEMDYWGQGTQVTVSS,high polyreactivity
5,QVQLVESGGGLVQAGGSLRLSCAASGFTFSYYALGWYRQAPGKERELVAVISDRGGITYYADSVKGRFTISRDNAKNTVYLQMNSRKPEDTAVYYCAAQNPRYNYRYYYWGQGTQVTVSS,low polyreactivity
6,QVQLVESGGGLVQAGGSLRLSCAASGFTFSYYAMGWYRPAPGKERELVAAITSGGSTYYADYVKGRFTISRDNAKNTVYLQMNSLKPEDTAVYYCNADGWYYPTDDYWGQGTQVTVSS,low polyreactivity
7,QVQLVESGGGLVQAGGSLRLSCAASGFTFSYYAMGWYRQAPGKERELVAAISFNGGRTYYADSVKGRFTISRDNAKNTVYLQMISLKPEDTAVYYCAARSLRPETLGDYWGQGTQVTVSS,high polyreactivity
8,QVQLVESGGGLVQAGGSLRLSCAASGFTFSYYAMGWYRQAPGKERELVAAISGSGTRTYYADSVKGRFTISRDNAKNTVYLQMNSLKPEDTAVYYCAADLYVTYDYWGQGTQVTVSS,high polyreactivity
9,QVQLVESGGGLVQAGGSLRLSCAASGFTFSYYAMGWYRQAPGKERELVAAISSGGSTYYADSVKGRFTISRDNAKNTVYLQMNSLKPEDTAVYYCNVLNYSSRHYLFSYDYWGQGTQVTVSS,high polyreactivity
10,QVQLVESGGGLVQAGGSLRLSCAASGFTFTAYAMGWYRPAPGKERELVAAISYRGGRTNYAYSVKGRFTISRDNAKNTVYLQMNSLKPEDTAVYYCAARPRISTREMDYWGQGTQVTVSS,high polyreactivity
11,QVQLVESGGGLVQAGGSLRLSCAASGFTFTAYAMGWYRQAPGKERELVAAINWSGSRTYYADSVKGRFTISRDHAKNTVYLQMNSLKPEDTAVYYCNTATSKSSYRHYDYWGQGTQVTVSS,high polyreactivity
12,QVQLVESGGGLVQAGGSLRLSCAASGFTFTAYAMGWYRQEPGKERELVAAITGTGGSTKYADSVKGRFTISRDNATNTVYLQMNSLKPEDTAVYYCAKRYRLRGRYDYWGQGTQVTVSS,high polyreactivity
13,QVQLVESGGGLVQAGGSLRLSCAASGFTFTDYAMGWYRQAPGKERELVAAITSGDSTYYADSVKGRFTISRDNAKNTVYLQMNSLKPEDTAVYYCNKLRRSPNSQYYYWGQGTQVTVSS,high polyreactivity
14,QVQLVESGGGLVQAGGSLRLSCAASGFTFTFNAMGWYRQEPGKEREFVAAITWSGGSTYYADSVKGRFTISRDNAKNTVYLQMNSLKPEDTAVYYCAARLYRSFTFNYWGQGTQVTVSS,high polyreactivity
15,QVQLVESGGGLVQAGGSLRLSCAASGFTFTGYAMGWYRQAPGKERELVAAITRGGGSTYYADSVKGRFTISRDNAKNTVYLQMNSLKPEDTAVYYCAAQRSRLIRISSPYYGHDYWGQGTQVTVSS,low polyreactivity
16,QVQLVESGGGLVQAGGSLRLSCAASGFTFTGYAMGWYRQAPGKERELVAVISETGGSTYADSVKGRFTISRDNAKNTVYLQMNSLKPEDTAVYYCNARSGYYLRYYDYDYWGQGTQVTVSS,low polyreactivity
17,QVQLVESGGGLVQAGGSLRLSCAASGFTFTHYAMGWYRQAPGKERELVAAITDTGGGTYYADSVKGRFTISRDTAKNTVYLQMNSLKPEDTAVYYCAKPTSYRGYYSWGQGTQVTVSS,high polyreactivity
18,QVQLVESGGGLVQAGGSLRLSCAASGFTFTKYAMGWYRQAPGKERELVAAITSGTSTYYADSVKGRFTISRDNAKYTVYLQMNSLKPEVTAVYYCAAPLYGRYSYGYWGQCTQVTVSS,high polyreactivity
19,QVQLVESGGGLVQAGGSLRLSCAASGFTFTPYAMGWYRQAPGKERELVAAITSTGGSTYYADSVKGRFTISRHNAKNTVYLQMNSLKPEDAAVYYCNAATPYSWGYRRGYWGQGTQVTVSS,high polyreactivity
20,QVQLVESGGGLVQAGGSLRLSCAASGFTFTQYAMGWYRPAPGKECELVAAISRSGGSTYYADSVKGRFTISRDNAKNTVYLQMTSLKPEDTPVYYCAADWRFRYDYWGQGTQVTVSS,high polyreactivity
21,QVQLVESGGGLVQAGGSLRLSCAASGFTFTRNAMGWYRQAPGKERELVAAISKRGGTTYYADSVKGRFTISRDNAKNTVYLQMNSLKPEDTAVYYCAKDGGITGGYWGQGTQVTVSS,high polyreactivity
